Molecular target: AMDV VP2 (Aleutian mink disease virus, UniProt A0A168PAM8 200-588)
Experiment: ELONA
Details: protein: recombinant; tags: His

B1: ADVa001 (ssDNA)
DNA: AGCAGCACAGAGGTCAGATGGTGTGTGTGTGTGTGTGTGTGCCTATGCGTGCTACCGTGACCTATGCGTGCTACCGTGAA
  Kd: 566 ± 127 nM

B2: ADVa011 (ssDNA)
DNA: AGCAGCACAGAGGTCAGATGGGGTTGTCGGTGTTTGCGGGCCTATGCGTGCTACCGTGAACCTATGCGTGCTACCGTGAA
  Kd: 2090 ± 754 nM

B3: ADVa012 (ssDNA)
DNA: AGCAGCACAGAGGTCAGATGAGCTAGTGCCTATGCGTGCTACCGTGAATAGCGTCAGCAGCCTATGCGTGCTACCGTGAA
  Kd: 930 ± 285 nM

B4: ADVa014 (ssDNA)
DNA: AGCAGCACAGAGGTCAGATGTGTTGTCCCGGGGCCCTATGCGTGCTACCGTGAATAGCGTCCTATGCGTGCTACCGTGAA
  Kd: 247 ± 62.5 nM

— publication PMC7907208, “Aptamer-targeting of Aleutian mink disease virus (AMDV) can be an effective strategy to inhibit virus replication”
